Measurements published in patent publication US20150335719A1, “Intravitreal Injection of a Chimeric Phage Endolysin Ply187; Protection from Staphylococcus aureus Endophthalmitis” (priority 2014, published 2015).

Tests used:
[1] = test system: S. aureus strain RN6390; test: Inoculum effect study in vitro; assay type: cell-based, Staphylococcus aureus; settings: dilutions 1:10,000 to 1:10, 1 h at MIC
From the text: FIGS. 4 A, B and C depict the effect of chimeric Ply187AN-KSH3b on bacterial growth in vivo and in the vitreous humor (VH) in vitro and with increasing inoculums in vitro respectively. […] Twenty-four hours after the treatment, the eyes were enucleated, homogenized and the bacterial burden was estimated via serial dilution plating. FIG. 4B depicts a test showing the effect of the vitreous humor on Ply187AN-KSH3b antimicrobial activity where Ply187AN-KSH3b was mixed with calf vitreous humor and inoculated with 10^5 CFU of S. aureus. The survival of the bacteria was enumerated by CFU count at 2, 4 and 6 h of incubation. Statistical analysis was performed using unpaired student's t test (*, p<0.05; **, p<0.005; ***, p<0.0005). […] An increasing number of dilutions (1:10,000 to 1:10) of logarithmic phase of S. aureus (RN6390 strain) were treated with Ply187AN-KSH3b for 1 h followed by CFU enumeration on TSA plates. Statistical analysis was performed using unpaired student's t test (*, p<0.05; **, p<0.005; ***, p<0.0005).
To determine the effect of Vitreous Humor (VH) on antimicrobial activity of chimeric Ply187AN-KSH3b in vitro, bacteria (10^5 CFU) were incubated with chimeric Ply187AN-KSH3b in the presence of calf VH. Following incubation at 37° C. for the desired time, bacterial growth in VH was enumerated by serial dilution plating. […]

[2] = intravitreal injection alone
[3] = test system: S. aureus RN6390 endophthalmitis; test: Mouse S. aureus endophthalmitis: histology (H&E) and TUNEL staining of retina; assay type: in vivo, C57BL/6 mice
Method: FIGS. 3A-3E show the effects of intravitreal injection of chimeric Ply187AN-KSH3b on the severity of S. aureus endophthalmitis. The eyes (n=10) of C57BL/6 mice were infected with S. aureus strain RN6390 and following either 6 h or 12 h post-infection, Ply187AN-KSH3b or EB (EB C) was administered by intravitreal injection. FIG. 3A depicts individual eyes assigned clinical scores (range 0 to 4; black dots represent an eye) and presented as mean clinical scores (bar with SEM). […] FIG. 3E depicts the total number of dead cells in the retinal sections that were counted and are presented as mean±SD of the TUNEL positive cells. A student's t test (**, p<0.005) was used for the statistical analysis and comparisons were made between the S. aureus (SA) control, SA+EBC, and SA+Ply187AN-KSH3b-treated group.
The embedding, sectioning, and Hematoxylin and Eosin (H & E) staining was performed by Excalibur Pathology Inc. (Oklahoma City, Okla.). For immunostaining, the eyes were fixed in Tissue-Tek® O.C.T. (Sakura, Torrance, Calif.) and five-micrometer-thick sagittal sections were collected from each eye and mounted onto microscope slides. TUNEL staining was performed on retinal cryo-sections using ApopTag® Fluorescein In situ Apoptosis Detection Kit as per manufacturer's instruction (Millipore, Billerica, Mass.).

[4] = test system: retinal cells; test: Cytotoxicity analysis in vivo (retinal cell death); settings: data not shown

B1: Ply187AN-KSH3b: staphylococcal peptidoglycan hydrolase fusion protein: endopeptidase domain of prophage endolysin Ply187 plus SH3b cell wall-binding domain of phage K endolysin LysK (SEQ ID NO:1) (protein)
chain: MALPKTGKPTAKQVVDWAINLIGSGVDVDGYYGRQCWDLPNYIFNRYWNFKTPGNARDMAWYRYPEGFKVFRNTSDFVPKPGDIAVWTGGNYNWNTWGHTGIVVGPSTKSYFYSVDQNWNNSNSYVGSPAAKIKHSYFGVTHFVRPAYKAEPKPTPPLESTPATRPVTGSWKKNQYGTWYKPENATFVNGNQPIVTRIGSPFLNAPVGGNLPAGATIVYDEVCIQAGHIWIGYNAYNGNRVYCPVRTCQGVPPNQIPGVAWGVFKVEHHHHHH
modifications: Chemically Synthesized Fusion Protein
With B1 as the molecule, how does the “activity with increasing bacterial numbers” value [1] read?
Its value is “no reduction in Ply187AN-KSH3b activity”.

What about the “inflammatory response in the eye” value [2] of the same molecule?
The value was “does not evoke an inflammatory response”.

What about the “histological analysis (H&E) of retina” value ([3]; 1 μg/eye intravitreal) of the same molecule?
The value was “preserved the integrity of the retina”.

What about the “TUNEL+ cells (retinal cell death), average” value ([3]; retinal sections) of the same molecule?
The value was 17.66 TUNEL^+ cells/eye.

What about the “retinal cell death in vivo” value [4] of the same molecule?
Its value is “does not cause retinal cell death”.
